In patent publication US20250250335A1:
Several values for one entry are separate records, joined by “and”; a condition that tells them apart may be missing. Equal entries are not always repeated.

Biological target: T1, mouse CEACAM5 (mouse) (UniProt Q3UKK2)
T1 sequence (looked up): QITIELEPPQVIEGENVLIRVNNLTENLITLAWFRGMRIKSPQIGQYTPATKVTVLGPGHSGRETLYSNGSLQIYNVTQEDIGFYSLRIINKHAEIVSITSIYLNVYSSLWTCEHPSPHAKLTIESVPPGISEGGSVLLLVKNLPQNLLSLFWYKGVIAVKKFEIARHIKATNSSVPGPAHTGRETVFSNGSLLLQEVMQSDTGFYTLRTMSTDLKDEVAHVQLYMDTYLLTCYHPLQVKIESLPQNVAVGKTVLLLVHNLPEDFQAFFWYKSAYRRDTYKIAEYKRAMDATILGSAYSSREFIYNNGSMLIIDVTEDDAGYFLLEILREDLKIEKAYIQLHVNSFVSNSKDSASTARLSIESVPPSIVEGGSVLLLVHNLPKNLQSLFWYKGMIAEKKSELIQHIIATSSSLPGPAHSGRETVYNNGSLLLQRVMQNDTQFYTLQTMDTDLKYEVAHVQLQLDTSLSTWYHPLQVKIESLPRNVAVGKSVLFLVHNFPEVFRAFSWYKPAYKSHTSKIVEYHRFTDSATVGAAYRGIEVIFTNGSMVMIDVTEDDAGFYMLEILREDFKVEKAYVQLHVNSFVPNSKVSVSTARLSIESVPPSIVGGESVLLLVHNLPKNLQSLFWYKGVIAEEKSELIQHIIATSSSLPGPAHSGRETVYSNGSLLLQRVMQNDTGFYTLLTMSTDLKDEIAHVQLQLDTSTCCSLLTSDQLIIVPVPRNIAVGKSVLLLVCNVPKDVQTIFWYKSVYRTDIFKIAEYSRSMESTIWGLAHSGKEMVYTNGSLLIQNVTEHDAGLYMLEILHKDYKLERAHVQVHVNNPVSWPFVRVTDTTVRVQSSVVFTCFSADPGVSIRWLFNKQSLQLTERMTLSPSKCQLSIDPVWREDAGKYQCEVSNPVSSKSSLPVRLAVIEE
Experiment: ELISA on coated protein, OD450

OD: 0.31 OD and 0.24 OD
B1: Antibody 7 (antibody, V domains shown)
VH: QIQLVQSGPELKKPGETVKISCKASGYTFTDYGMNWVKQAPGKGLKWMGWINTYTGEPTYPDDFKGRFAFSLETSATTAYLQINNLKNEDTATYFCSRGDLLVRLDNWGQGTTLTVSS
VL: DIQMTQSPSSLSASLGGKVTITCKASQDINKYISWYQHKPGKGPRLLIHYTSTLQSGIPSRFSGSGSGRDYSFSISNLEPEDIATYYCLQYDYLRTFGGGTKLEIK
